Assay results reported in patent publication US20220289837A1 (VIB VZW, published 2022).

Experiments:
[1] = target: T1, Stabilized human CFTR (stab-CFTR: 2PT/ΔRI/R1048A_1172X) (human, UniProt P13569 1-1171, limits assumed); assay: cell-based or functional assay
[2] = target: T1, Stabilized human CFTR (stab-CFTR: …); assay: cell-based or functional assay; remark: listed apart in the source
[3] = target: Purified human wt-CFTR (His10-SUMO*-CFTRFLAG-EGFP), PKA phosphorylated (human, UniProt P13569 1-1480, PKA phosphorylated (sites not given)); assay: cell-based or functional assay
Purified human wt-CFTR (His10-SUMO*-CFTRFLAG-EGFP), PKA phosphorylated, sequence (P13569 whole entry, the tested form may be a part): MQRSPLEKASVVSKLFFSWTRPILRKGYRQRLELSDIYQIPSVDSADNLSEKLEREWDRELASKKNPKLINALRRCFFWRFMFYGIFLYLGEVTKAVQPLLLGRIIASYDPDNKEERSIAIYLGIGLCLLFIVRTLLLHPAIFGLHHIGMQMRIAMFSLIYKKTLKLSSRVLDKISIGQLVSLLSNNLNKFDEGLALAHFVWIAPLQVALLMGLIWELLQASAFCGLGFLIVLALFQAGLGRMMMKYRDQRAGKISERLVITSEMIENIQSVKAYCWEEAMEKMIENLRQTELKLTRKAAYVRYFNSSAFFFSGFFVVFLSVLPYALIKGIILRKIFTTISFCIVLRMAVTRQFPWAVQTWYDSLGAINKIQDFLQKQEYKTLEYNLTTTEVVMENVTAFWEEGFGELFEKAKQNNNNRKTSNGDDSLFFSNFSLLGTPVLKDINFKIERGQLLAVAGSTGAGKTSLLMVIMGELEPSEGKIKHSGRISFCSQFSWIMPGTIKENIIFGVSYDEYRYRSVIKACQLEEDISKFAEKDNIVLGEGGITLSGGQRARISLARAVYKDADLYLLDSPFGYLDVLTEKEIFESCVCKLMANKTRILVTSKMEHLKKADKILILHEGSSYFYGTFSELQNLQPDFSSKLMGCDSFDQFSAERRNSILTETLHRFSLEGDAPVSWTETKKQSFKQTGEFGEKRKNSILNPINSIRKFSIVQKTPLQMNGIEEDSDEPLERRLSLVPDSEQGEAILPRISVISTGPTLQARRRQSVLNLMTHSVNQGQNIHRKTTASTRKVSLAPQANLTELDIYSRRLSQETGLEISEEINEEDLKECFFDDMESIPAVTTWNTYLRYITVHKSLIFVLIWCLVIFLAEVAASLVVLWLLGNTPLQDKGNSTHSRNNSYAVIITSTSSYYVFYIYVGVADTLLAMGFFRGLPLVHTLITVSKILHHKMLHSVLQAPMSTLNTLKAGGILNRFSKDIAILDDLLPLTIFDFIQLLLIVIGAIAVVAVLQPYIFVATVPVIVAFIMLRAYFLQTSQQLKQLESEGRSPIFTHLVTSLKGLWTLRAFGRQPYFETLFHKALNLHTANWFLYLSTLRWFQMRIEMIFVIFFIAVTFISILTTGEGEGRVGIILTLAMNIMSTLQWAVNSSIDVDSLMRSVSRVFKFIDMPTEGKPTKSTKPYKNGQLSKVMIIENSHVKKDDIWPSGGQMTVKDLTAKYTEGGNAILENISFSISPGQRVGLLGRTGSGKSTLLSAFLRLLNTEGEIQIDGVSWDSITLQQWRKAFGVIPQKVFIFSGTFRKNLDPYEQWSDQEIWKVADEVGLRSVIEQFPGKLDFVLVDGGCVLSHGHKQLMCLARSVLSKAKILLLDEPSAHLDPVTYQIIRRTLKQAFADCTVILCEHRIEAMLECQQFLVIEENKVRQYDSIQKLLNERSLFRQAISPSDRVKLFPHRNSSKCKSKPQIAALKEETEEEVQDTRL

[4] = target: T2, 2PT-NBD1 (human CFTR nucleotide-binding domain 1, residues 387-646, with S492P, A534P, I539T) (human, UniProt P13569 388-646, biotinylated for the ELISA (sites not given)); assay: cell-based or functional assay
T2 sequence (P13569 388-646 V470M/S492P/A534P/I539T limits assumed): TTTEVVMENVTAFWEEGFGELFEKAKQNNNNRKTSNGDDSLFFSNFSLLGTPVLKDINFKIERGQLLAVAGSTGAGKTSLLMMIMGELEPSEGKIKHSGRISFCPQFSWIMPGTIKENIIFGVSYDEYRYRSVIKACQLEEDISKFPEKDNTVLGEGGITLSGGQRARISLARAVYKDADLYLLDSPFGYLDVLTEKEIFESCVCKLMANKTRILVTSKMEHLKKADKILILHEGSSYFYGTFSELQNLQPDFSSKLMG

[5] = target: T2, 2PT-NBD1 (human CFTR nucleotide-binding …); assay: ITC, nanobody titrated into 2PT-NBD1 at 20 °C, one-site model
Procedure: (§1) Isothermal titration calorimetry (ITC) was used to characterize the thermodynamic parameters of the binding (FIG. 1e and FIG. 9). […] These KD values are similar to those measured for other in vivo matured camelid heavy-chain antibodies interacting with their ligands^{[20]}. The thermodynamic parameters of the interaction of nanobodies with 2PT-NBD1 were determined based on these ITC measurements (FIG. 1e and FIG. 9).
(§2) Interactions between nanobodies and 2PT-NBD1 was carried out on NanoITC system (TA Instruments) in 0.165 ml cells at 20° C., 300 rpm syringe stirring. Proteins were extensively dialyzed in 20 mM Hepes buffer pH 7.5, 150 mM NaCl, 10% (w/v) glycerol, 10% (w/v) ethylene glycol, 2 mM ATP and 3 mM MgCl₂ for 16 h at 4° C. Heat of dilution from control experiments of each nanobody titrated into buffer was subtracted from the titration into 2PT-NBD1. Data were integrated analyzed with Origin 7.0 software (Origin Lab Corp.).

[6] = target: T2, 2PT-NBD1 (human CFTR nucleotide-binding …); assay: ELISA, biotinylated 2PT-NBD1 on avidin-coated plate, T27 titrated
Source text: (§3) The location of these nanobodies completely overlaps (FIG. 11a) with that of the C-terminal regulatory extension (RE) observed in previously published structures of NBD1^{[25,26].} The RE segment, comprising residues 654-673 was removed from the 2PT-NBD1 construct used for immunization and characterization. While the functional role of the RE is still unclear, it has been described to be a very mobile domain^{[27]}. […] This is consistent with RE being a dynamic region of CFTR.
(§4) For dose-response assays, Nunc MaxiSorp 96-well plates (ThermoScientific), were coated with 5 μg/ml NeutrAvidin Biotin-Binding protein (ThermoScientific) overnight at 4° C. and blocked 2 h at room temperature (RT) with 2% milk in phosphate-buffered saline (PBS). Each new reagent addition was preceded by three washes with 200 μl of NBD1 buffer (20 mM HEPES pH 7.5, 150 mM NaCl, and 10% (w/v) glycerol, 10% (w/v) ethylene glycol, 2 mM ATP, 3 mM MgCl₂). Then, biotinylated purified NBD1 proteins at 5 μg/ml were immobilized 30 min at RT followed by 1 h RT incubation with 100 μl various concentrations (0-20 μg/ml) of purified nanobodies. […] 50 μl of 1-Step UltraTMB-ELISA (ThermoScientific) was used as a substrate for the peroxidase and intensity of the reaction was proportional to absorbance measured at 450 nm with SynergyMx (BioTek) after addition of 50 μl H₂SO₄ at 1M.

[7] = target: T3, 2PT-NBD1-RE (2PT-NBD1 with residues 387-678, containing the regulatory extension) (human, UniProt P13569 387-678, biotinylated for the ELISA (sites not given)); assay: ELISA, biotinylated 2PT-NBD1-RE on avidin-coated plate, T27 titrated
T3 sequence (P13569 other isoform, or with tags, fused parts or gaps limits assumed): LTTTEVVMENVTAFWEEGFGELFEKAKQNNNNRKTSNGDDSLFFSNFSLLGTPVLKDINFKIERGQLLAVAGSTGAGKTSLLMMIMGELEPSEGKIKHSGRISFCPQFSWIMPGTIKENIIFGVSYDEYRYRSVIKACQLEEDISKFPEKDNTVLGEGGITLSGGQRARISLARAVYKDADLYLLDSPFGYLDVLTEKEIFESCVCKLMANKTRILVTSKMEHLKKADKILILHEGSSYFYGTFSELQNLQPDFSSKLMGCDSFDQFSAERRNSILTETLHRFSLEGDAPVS
Source text: as §3, §4

[8] = target: T2, 2PT-NBD1 (human CFTR nucleotide-binding …); assay: isothermal titration calorimetry, nanobody titrated into 2PT-NBD1 at 20 °C, one-site model
Procedure: as §1, §2

F508del-2PT-NBD1 = target: T4, F508del-2PT-NBD1 (human, UniProt P13569 388-646, biotinylated for the ELISA (sites not given)); assay: ELISA, biotinylated F508del-2PT-NBD1 on avidin-coated plate, nanobody titrated, anti-His detection
T4 construct: also called F508del-2PT-NBD1 mutant
T4 sequence (P13569 other isoform, or with tags, fused parts or gaps limits assumed, stated change not applied): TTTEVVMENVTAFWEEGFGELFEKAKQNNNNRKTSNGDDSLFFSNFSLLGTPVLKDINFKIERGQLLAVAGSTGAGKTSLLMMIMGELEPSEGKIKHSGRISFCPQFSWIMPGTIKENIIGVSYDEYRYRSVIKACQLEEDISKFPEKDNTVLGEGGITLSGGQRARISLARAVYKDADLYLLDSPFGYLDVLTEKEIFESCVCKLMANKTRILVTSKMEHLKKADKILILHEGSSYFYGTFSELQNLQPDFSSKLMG
Procedure: (§5) (a) Nanobody binding to 2PT-NBD1 measured by ELISA. Biotinylated 2PT-NBD1 was immobilized on avidin-coated plates and incubated with increasing concentration of each nanobody. Binding of nanobody was followed by immunodetection of the His-tag (see Methods). Representative curve of 3 independent experiments is shown. Error bars represent the standard deviation (SD) of duplicates. Data were normalized to maximum signal for each nanobody separately. (b) Nanobody binding to F508del-2PT-NBD1 measured by ELISA as described in panel a. (c) Nanobody T4 binding to 2PT-NBD1 and F508del-2PT-NBD1. Data were normalized to maximum signal of T4 binding to 2PT-NBD1. (d) Nanobody T8 binding to 2PT-NBD1 and F508del-2PT-NBD1. Data were normalized to maximum signal of T8 binding to 2PT-NBD1.
(§6) For dose-response assays, Nunc MaxiSorp 96-well plates (ThermoScientific), were coated with 5 μg/ml NeutrAvidin Biotin-Binding protein (ThermoScientific) overnight at 4° C. and blocked 2 h at room temperature (RT) with 2% milk in phosphate-buffered saline (PBS). Each new reagent addition was preceded by three washes with 200 μl of NBD1 buffer (20 mM HEPES pH 7.5, 150 mM NaCl, and 10% (w/v) glycerol, 10% (w/v) ethylene glycol, 2 mM ATP, 3 mM MgCl₂). Then, biotinylated purified NBD1 proteins at 5 μg/ml were immobilized 30 min at RT followed by 1 h RT incubation with 100 μl various concentrations (0-20 μg/ml) of purified nanobodies. Signal detection was followed using His-tag specific antibody (Invitrogen, catalogue number: MA1-135, 1:3000 dilution) to detect the nanobodies and secondary antibody anti-mouse coupled to horse radish peroxidase (HRP) (Millipore, catalogue number: AP308P, 1:5000 dilution). 50 μl of 1-Step UltraTMB-ELISA (ThermoScientific) was used as a substrate for the peroxidase and intensity of the reaction was proportional to absorbance measured at 450 nm with SynergyMx (BioTek) after addition of 50 μl H₂SO₄ at 1M.

[9] = target: T2, 2PT-NBD1 (human CFTR nucleotide-binding …); assay: ELISA, biotinylated 2PT-NBD1 on avidin-coated plate, nanobody titrated, anti-His detection; column head 'pEC50 (M)'
Procedure: as §5, §6

[10] = target: T2, 2PT-NBD1 (human CFTR nucleotide-binding …); assay: ELISA, biotinylated 2PT-NBD1 on avidin-coated plate, D12 titrated
Source text: as §3, §4

[11] = target: T3, 2PT-NBD1-RE (2PT-NBD1 with residues …); assay: ELISA, biotinylated 2PT-NBD1-RE on avidin-coated plate, D12 titrated
Source text: as §3, §4

[12] = target: T5, 2PT-F508del-CFTR expressed in BHK-21 cells (human, UniProt P13569 1-1480, I539T; S492P; A534P; F508del); assay: flow cytometry on permeabilised BHK-21 cells expressing 2PT-F508del-CFTR, anti-tag antibody and Alexa Fluor 488 secondary
T5 construct: Full-length F508del CFTR stabilized by the three point mutations; permeabilized cells in flow cytometry
T5 sequence (P13569 other isoform, or with tags, fused parts or gaps I539T/S492P/A534P/F508del): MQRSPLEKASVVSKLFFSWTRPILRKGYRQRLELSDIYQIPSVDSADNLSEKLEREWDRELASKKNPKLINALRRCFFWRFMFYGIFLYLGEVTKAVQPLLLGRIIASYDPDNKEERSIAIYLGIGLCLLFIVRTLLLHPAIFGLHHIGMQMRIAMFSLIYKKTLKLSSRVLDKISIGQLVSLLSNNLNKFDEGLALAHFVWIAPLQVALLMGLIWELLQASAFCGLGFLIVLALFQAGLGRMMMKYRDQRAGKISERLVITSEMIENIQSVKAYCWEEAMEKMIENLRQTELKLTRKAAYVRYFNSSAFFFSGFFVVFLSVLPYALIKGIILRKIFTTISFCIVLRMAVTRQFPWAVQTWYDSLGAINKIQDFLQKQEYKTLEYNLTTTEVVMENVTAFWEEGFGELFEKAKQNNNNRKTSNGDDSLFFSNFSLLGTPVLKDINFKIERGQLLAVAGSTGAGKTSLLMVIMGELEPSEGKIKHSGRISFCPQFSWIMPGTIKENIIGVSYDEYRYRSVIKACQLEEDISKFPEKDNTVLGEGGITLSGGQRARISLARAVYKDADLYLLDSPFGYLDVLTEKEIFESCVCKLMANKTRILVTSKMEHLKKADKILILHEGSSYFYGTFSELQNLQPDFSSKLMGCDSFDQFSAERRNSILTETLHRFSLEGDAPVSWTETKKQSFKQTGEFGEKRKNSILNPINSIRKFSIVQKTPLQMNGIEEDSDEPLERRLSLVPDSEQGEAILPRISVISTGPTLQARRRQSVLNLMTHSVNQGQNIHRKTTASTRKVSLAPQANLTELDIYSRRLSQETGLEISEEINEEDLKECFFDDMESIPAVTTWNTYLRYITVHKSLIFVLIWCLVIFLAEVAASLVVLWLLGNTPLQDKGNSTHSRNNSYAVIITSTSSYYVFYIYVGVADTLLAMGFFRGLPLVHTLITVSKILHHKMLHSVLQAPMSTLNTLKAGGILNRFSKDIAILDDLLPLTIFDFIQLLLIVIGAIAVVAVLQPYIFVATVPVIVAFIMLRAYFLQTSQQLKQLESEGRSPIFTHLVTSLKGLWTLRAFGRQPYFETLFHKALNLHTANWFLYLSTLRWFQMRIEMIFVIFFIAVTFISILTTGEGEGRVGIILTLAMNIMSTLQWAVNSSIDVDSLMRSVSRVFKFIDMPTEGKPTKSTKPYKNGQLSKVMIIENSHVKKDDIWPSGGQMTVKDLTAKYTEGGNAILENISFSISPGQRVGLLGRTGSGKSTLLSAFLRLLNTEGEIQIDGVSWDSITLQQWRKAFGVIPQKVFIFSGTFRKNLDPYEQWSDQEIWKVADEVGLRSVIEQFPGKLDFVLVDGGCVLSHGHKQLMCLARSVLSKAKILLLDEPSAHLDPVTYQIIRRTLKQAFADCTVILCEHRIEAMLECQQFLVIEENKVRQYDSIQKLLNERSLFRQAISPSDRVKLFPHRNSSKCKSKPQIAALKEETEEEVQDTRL
Source text: Graph depicts one representative of at least three independent experiments. (FIG. 4F) Average median fluorescence (fold over negative control) for each of the three representative nanobodies as illustrated in (FIG. 4D) and (FIG. 4E). Quantification of at least 3 independent experiments (±SEM). (g) Immunoblot of CFTR from solubilized BHK-21 cells pulled-down with His-tagged nanobodies, including a non-CFTR nanobody as a control. Eluted nanobodies-CFTR complexes were separated by SDS-PAGE and presence of CFTR was detected with mAb 596 antibody after immunoblotting. Arrows indicate the mature (band C) and immature (band B) forms of CFTR. Representative of at least 3 independent experiments. (FIG. 4H) Flow cytometry analysis of nanobodies T2a, T8 and G3a on BHK-21 cells expressing 2PT-F508del showing increased labelling for T2a and G3a, but not T8. (FIG. 4I) Quantification of data illustrated in […]. Average of 3 independent experiments (±SEM).
Parental BHK-21 cells (ATCC; CCL-10) and cells stably overexpressing human wt-CFTR^{[43,44,47]} or 2PT-F508del-CFTR, as described above, were permeabilized with 0.01% n-Dodecyl-β-D-Maltopyranoside β-DDM—Inalco) at least for 2 h on ice. In the meantime, cells were incubated with 50 μg/ml nanobodies and DRAQ7 (0.3 μM—Biostatus) to monitor the permeabilization state. Nanobody binding was detected by using His-tag specific antibody (Invitrogen, catalogue number MA1-135, 1 μg/ml) or Myc-tag specific antibody (Invitrogen, catalogue number 13-2500, 2 μg/ml) and then anti-mouse-Alexa Fluor 488 (Invitrogen, catalogue number A11001, 1.3 μg/ml) at least for 30 min on ice. Cells were washed one time between each step by centrifugation (200×g for 5 min at 4° C.). All incubations (100 μl) and washes (1.5 ml) were performed in PBS with 6% fetal bovine serum (FBS) and 0.01%13-DDM on ice. Cells fluorescence was measured with Gallios Flow Cytometer (Beckman Coulter). Data were analyzed with Kaluza software.

T1 sequence (P13569 other isoform, or with tags, fused parts or gaps R1048A R1048A limits assumed): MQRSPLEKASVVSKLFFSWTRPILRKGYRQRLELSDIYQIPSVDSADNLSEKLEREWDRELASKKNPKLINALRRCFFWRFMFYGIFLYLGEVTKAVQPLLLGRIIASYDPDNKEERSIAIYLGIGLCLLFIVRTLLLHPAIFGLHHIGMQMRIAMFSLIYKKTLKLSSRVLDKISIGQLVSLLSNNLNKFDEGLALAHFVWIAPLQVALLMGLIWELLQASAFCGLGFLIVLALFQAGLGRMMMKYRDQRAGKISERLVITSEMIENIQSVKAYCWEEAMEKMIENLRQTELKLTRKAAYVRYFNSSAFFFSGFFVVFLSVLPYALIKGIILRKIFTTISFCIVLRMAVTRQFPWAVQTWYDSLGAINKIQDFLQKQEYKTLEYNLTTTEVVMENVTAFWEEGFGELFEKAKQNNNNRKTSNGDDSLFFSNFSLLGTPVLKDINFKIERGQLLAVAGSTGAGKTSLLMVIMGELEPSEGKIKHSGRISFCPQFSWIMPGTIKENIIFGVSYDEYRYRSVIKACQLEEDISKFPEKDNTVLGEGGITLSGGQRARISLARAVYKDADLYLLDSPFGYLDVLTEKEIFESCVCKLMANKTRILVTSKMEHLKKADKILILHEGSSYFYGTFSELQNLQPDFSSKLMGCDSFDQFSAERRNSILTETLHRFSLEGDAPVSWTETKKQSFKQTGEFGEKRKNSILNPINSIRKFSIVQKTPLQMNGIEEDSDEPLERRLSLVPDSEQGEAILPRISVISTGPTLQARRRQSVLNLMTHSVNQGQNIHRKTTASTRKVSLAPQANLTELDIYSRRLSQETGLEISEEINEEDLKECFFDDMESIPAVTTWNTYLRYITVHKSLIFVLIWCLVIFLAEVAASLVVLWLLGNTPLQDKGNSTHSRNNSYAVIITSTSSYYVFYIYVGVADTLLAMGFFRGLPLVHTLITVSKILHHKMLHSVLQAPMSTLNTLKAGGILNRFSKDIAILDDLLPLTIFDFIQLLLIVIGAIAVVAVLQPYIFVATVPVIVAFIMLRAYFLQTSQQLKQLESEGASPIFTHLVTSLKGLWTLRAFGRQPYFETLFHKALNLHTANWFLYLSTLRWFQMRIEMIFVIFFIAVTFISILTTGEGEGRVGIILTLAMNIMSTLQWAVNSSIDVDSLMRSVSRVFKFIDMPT

B1: Nanobody T4 (VHH, not shown: small tags and cut ends)
VHH: QVQLQESGGGLVQAGGSLRLSCAASGSTFAIIAMGWYRQAPGKQRELVAVISTGDTRYADSVKGRFTISRDNAKNTVYLQMDSLRPEDTAVYYCNAAVQVRDYRNYWGQGTQVTVSS
[1]
  thermostabilization (nanoDSF, Tm): 8 °C
[2]
  Tm of stab-CFTR in complex with the nanobody (nanoDSF, first derivative of 350 nm fluorescence); 'stab-CFTR (51.4°C)', 'T4 (73.8°C)' alone: 59.4 °C

B2: Nanobody T27 (VHH, not shown: small tags and cut ends)
VHH: QVQLQESGGGLEQPGGSLRLSCATSGVIFGINAMGWYRQAPGKQRELVATFTSGGSTNYADFVEGRFTISRDNAKNTVYLQMNGLRPEDTAVYYCHATVVVSRYGLTYDYWGQGTQVTVSS
notes: Llama nanobody; also called NbT27; T27 Nb
[3]
  ATPase activity (% of PKA-phosphorylated CFTR): 30%
[4]
  increase of Tm (thermal shift assay, DSF): 11.9 °C
[5]
  ΔG: -10.2 kcal/mol
  ΔH: -12.1 kcal/mol
[6]
  EC50 (read off the curve): ~3 nM
[7]
  EC50 (read off the curve): ~3 nM
[8]
  Kd: 25 nM
F508del-2PT-NBD1
  EC50 (read off the curve): ~2 nM
[9]
  pEC50: 8.7

B3: Nanobody D12 (VHH, not shown: small tags and cut ends)
VHH: QVQLQESGGGLVQAGSSLRLACAATGSIRSINNMGWYRQAPGKQRGMVAIITRVGNTDYADSVKGRFTISRDNAKNTVYLQMNSLKPEDTATYYCHAEITEQSRPFYLTDDYWGQGTQVTVSS
notes: Llama nanobody raised against 2PT-NBD1; produced in E. coli periplasm; also called Nb D12; D12 Nb
[3]
  ATPase activity (% of PKA-phosphorylated CFTR): 50%
[4]
  increase of Tm (thermal shift assay, DSF): 13.8 °C
[10]
  EC50 (read off the curve): ~50 nM
[11]
  EC50 (read off the curve): ~80 nM
F508del-2PT-NBD1
  EC50 (read off the curve): ~10 nM
[9]
  pEC50: 7.6

B4: Nanobody G3a (VHH, not shown: small tags and cut ends)
VHH: QVQLQESGGGLVQAGGSLRLSCTASGRAFSWYVMGWFRQAPGKEREFVATVSGNGSRRDYADSVKGRFTISRDNAKNTVYLQMNSLKPEDTAVYYCAASSTYYYTDPEKYDYWGQGTQVTVSS
notes: Llama nanobody, non-stabilizing; also called Nb G3a; G3a Nb
[5]
  ΔG: -7.98 kcal/mol
  ΔH: -11.4 kcal/mol
[8]
  Kd: 1100 nM
F508del-2PT-NBD1
  EC50 (read off the curve): ~2000 nM
[9]
  pEC50: 5.8
[12]
  binding result: binds
